{"source": "paper PMC7943553", "about": "(2021)", "key": {"250233 [1]": {"target": "250233", "assay": "BLI"}, "335338 [2]": {"target": "335338", "assay": "BLI"}, "326327 [3]": {"target": "326327", "assay": "BLI"}, "260261 [4]": {"target": "260261", "assay": "BLI"}, "262231 [5]": {"target": "262231", "assay": "BLI"}, "279280 [6]": {"target": "279280", "assay": "BLI"}, "346343 [7]": {"target": "346343", "assay": "BLI"}, "267268 [8]": {"target": "267268", "assay": "BLI"}, "254255 [9]": {"target": "254255", "assay": "BLI"}, "340341 [10]": {"target": "340341", "assay": "BLI"}, "256257 [11]": {"target": "256257", "assay": "BLI"}, "277278 [12]": {"target": "277278", "assay": "BLI"}, "239229 [13]": {"target": "239229", "assay": "BLI"}, "281282": {"target": "281282", "assay": "BLI"}, "252248 [14]": {"target": "252248", "assay": "BLI"}, "250233 [15]": {"target": "250233", "assay": "BLI; representative sensorgram"}, "335338 [16]": {"target": "335338", "assay": "BLI; representative sensorgram"}, "326327 [17]": {"target": "326327", "assay": "BLI; representative sensorgram"}, "260261 [18]": {"target": "260261", "assay": "BLI; representative sensorgram"}, "262231 [19]": {"target": "262231", "assay": "BLI; representative sensorgram"}, "279280 [20]": {"target": "279280", "assay": "BLI; representative sensorgram"}, "346343 [21]": {"target": "346343", "assay": "BLI; representative sensorgram"}, "267268 [22]": {"target": "267268", "assay": "BLI; representative sensorgram"}, "254255 [23]": {"target": "254255", "assay": "BLI; representative sensorgram"}, "340341 [24]": {"target": "340341", "assay": "BLI; representative sensorgram"}, "256257 [25]": {"target": "256257", "assay": "BLI; representative sensorgram"}, "277278 [26]": {"target": "277278", "assay": "BLI; representative sensorgram"}, "239229 [27]": {"target": "239229", "assay": "BLI; representative sensorgram"}, "252248 [28]": {"target": "252248", "assay": "BLI; representative sensorgram"}}, "data": [{"binder": "P. vivax Reticulocyte Binding Protein 2b, residues 161–1454 (domain or fragment, DyLight 488 (NHS ester) in the FRET assay; biotin (BirA site) in the competition ELISA between human mAbs) PSPESTQITNTTDNIDYFDISDESNYYLISQLRPHFSNIYFFDEFKRYASYHTEIKRYEDIHKTKVNSLLNEASRAIGICNRAKNTVKGLINILENPQKFKTQRESYDVKLRQYEEKKEAFRGCLLNKNRKNLDQIKKINNEIRDLLEKLKCSQDCQTNVYFDMIKIYLVDFKKMPYENYDTFIKQYKNSYLSGVDMIRKIEKQIDNPVTINAIKFTQKEMGYIIDRFEYHLQKVKHSIDQVTALSDGVKPKQVTKNRLKEYYFNIGNYYSIFKFGKDSLNMLNKALIHKEKIVHNLLGELFGHLEERISKLIDSEYFITESNNIISQSEETLKLAEDVYDKNTKLIEDLTLYPHLEINEFKKDYDNNVEDLRESIIYIQSYVSSIKSAYRYNVLEKDSVESKQKNIPANSNAQKKVDELLSIIDSISYSNFSVAENFQKMKDYYKEIEKLKIKILQLIEAIKKYQQHVEELINKEKAVAILKEDINKIIEYIKGIIEKLKQLISANKDFDKIFQQVEQLINEALFNKDQFEHNKNDLHTKMKEIMHTFHERDLQQFLDNMSKFLKDQEASYQNADSKEKLDQLLTTVKAKQDELKEMKCDDIPDIIDNLKKESQNVLNLKDEVINKQFENMRTEMSSSLDQMTKEYNALKSSIEEYEAEKKGIENHKQNIIKRKNTFIVAEHENDEDVPEGKNTYNEFISNKDTILQKESAISNQMNTLEEKKRNRKTTLQTYGDAIQKLETYTEKKDEETKVLLDKFNTEVENFKLDEDEKSFNDAKSIVSNTINEVENENKNIDSIKKVNIAMKRSRSNQQSVEQLIRNKDNLLKEKMEKHFQKINTDEIIGQSAKANLLNNLESEKAIINEQLNDAHLNDLKLQIEKTLSYCEKSRENIKGNNGTHPEELNASEIEWEATKGKIETLNSNYQALNKNMDDIINKQHDEMIVLIDRDIKEKGKDIELKVEQRIQALEKMKAKLSSFDTNEDVKKYQSDINKEELIKLKEMSTAVLNKIDQNKNQLINVKTKSSGYVAESNGIKNKQTEPSQEKDKQIVYNTNRGDIEKVYKNIRDMYNELDDVEKEETTSNEVDNIEMQYDRLLINLLVQKINEENTKAKGLMEEIKSYIENIESVQAKMSDETREGATEFEFNQYQQSSLANDKKITEIVQHAINKKGEAERSKKTNEVKSIKNDVNTYMQQVIDEYNAMQKALGDIKNVNDLLISTSGRRIAEEISKSTNEAENFEKQAKGELGKINDIIEKMENQMVQAKEHENKIHINLEDKQIDEEVQKIRQIHEE", "values": [{"measurement": "Kd", "setting": "250233 [1]", "value": 0.988, "unit": "nM"}, {"measurement": "koff", "setting": "250233 [1]", "value": 0.00035, "unit": "s⁻¹"}, {"measurement": "Kd", "setting": "335338 [2]", "value": 0.0782, "unit": "nM"}, {"measurement": "koff", "setting": "335338 [2]", "value": "3.08e-05", "unit": "s⁻¹"}, {"measurement": "Kd", "setting": "326327 [3]", "value": 0.642, "unit": "nM"}, {"measurement": "koff", "setting": "326327 [3]", "value": 0.000246, "unit": "s⁻¹"}, {"measurement": "Kd", "setting": "260261 [4]", "value": 0.0205, "unit": "nM"}, {"measurement": "koff", "setting": "260261 [4]", "value": "6.23e-06", "unit": "s⁻¹"}, {"measurement": "Kd", "setting": "262231 [5]", "value": 0.14, "unit": "nM"}, {"measurement": "koff", "setting": "262231 [5]", "value": "6.22e-05", "unit": "s⁻¹"}, {"measurement": "Kd", "setting": "279280 [6]", "value": 0.727, "unit": "nM"}, {"measurement": "koff", "setting": "279280 [6]", "value": 0.000194, "unit": "s⁻¹"}, {"measurement": "Kd", "setting": "346343 [7]", "value": "< 0.01", "unit": "nM"}, {"measurement": "koff", "setting": "346343 [7]", "value": "< 1e-06", "unit": "s⁻¹"}, {"measurement": "Kd", "setting": "267268 [8]", "value": 0.213, "unit": "nM"}, {"measurement": "koff", "setting": "267268 [8]", "value": "5.71e-05", "unit": "s⁻¹"}, {"measurement": "Kd", "setting": "254255 [9]", "value": 0.0742, "unit": "nM"}, {"measurement": "koff", "setting": "254255 [9]", "value": "2.52e-05", "unit": "s⁻¹"}, {"measurement": "Kd", "setting": "340341 [10]", "value": 0.107, "unit": "nM"}, {"measurement": "koff", "setting": "340341 [10]", "value": "3.85e-05", "unit": "s⁻¹"}, {"measurement": "Kd", "setting": "256257 [11]", "value": "< 0.01", "unit": "nM"}, {"measurement": "koff", "setting": "256257 [11]", "value": "< 1e-06", "unit": "s⁻¹"}, {"measurement": "Kd", "setting": "277278 [12]", "value": 0.0796, "unit": "nM"}, {"measurement": "koff", "setting": "277278 [12]", "value": "3.08e-05", "unit": "s⁻¹"}, {"measurement": "Kd", "setting": "239229 [13]", "value": 0.112, "unit": "nM"}, {"measurement": "koff", "setting": "239229 [13]", "value": "4.6e-05", "unit": "s⁻¹"}, {"measurement": "Kd", "setting": "281282", "value": 0.0273, "unit": "nM"}, {"measurement": "koff", "setting": "281282", "value": "6.03e-06", "unit": "s⁻¹"}, {"measurement": "Kd", "setting": "252248 [14]", "value": 0.586, "unit": "nM"}, {"measurement": "koff", "setting": "252248 [14]", "value": 0.000193, "unit": "s⁻¹"}, {"measurement": "Kd", "setting": "250233 [15]", "value": 1, "unit": "nM"}, {"measurement": "Kd", "setting": "335338 [16]", "value": 0.0505, "unit": "nM"}, {"measurement": "Kd", "setting": "326327 [17]", "value": 0.5, "unit": "nM"}, {"measurement": "Kd", "setting": "260261 [18]", "value": "< 0.01", "unit": "nM"}, {"measurement": "Kd", "setting": "262231 [19]", "value": 0.1, "unit": "nM"}, {"measurement": "Kd", "setting": "279280 [20]", "value": 0.8, "unit": "nM"}, {"measurement": "Kd", "setting": "346343 [21]", "value": "< 0.01", "unit": "nM"}, {"measurement": "Kd", "setting": "267268 [22]", "value": 0.3, "unit": "nM"}, {"measurement": "Kd", "setting": "254255 [23]", "value": 0.0157, "unit": "nM"}, {"measurement": "Kd", "setting": "340341 [24]", "value": 0.0794, "unit": "nM"}, {"measurement": "Kd", "setting": "256257 [25]", "value": "< 0.01", "unit": "nM"}, {"measurement": "Kd", "setting": "277278 [26]", "value": 0.0189, "unit": "nM"}, {"measurement": "Kd", "setting": "239229 [27]", "value": 0.1, "unit": "nM"}, {"measurement": "Kd", "setting": "252248 [28]", "value": 0.3, "unit": "nM"}]}]}
